Data as given in patent US20260308269 (published 2026).
Substitutions are numbered along the chain they refer to.

T1: human TfR apical domain (human)
T1 chain: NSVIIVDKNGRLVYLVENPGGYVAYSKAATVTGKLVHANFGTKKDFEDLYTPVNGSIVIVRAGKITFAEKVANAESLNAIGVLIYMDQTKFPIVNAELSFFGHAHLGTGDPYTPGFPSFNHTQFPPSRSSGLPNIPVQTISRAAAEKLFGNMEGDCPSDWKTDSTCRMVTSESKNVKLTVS

B1: 35.d1.12 (protein)
chain: ASTKGPSVFPLAPSSKSTSGGTAALGCLVKDYFPEPVTVSWNSGALTSGVHTFPAVLQSSGLYSLSSVVTVPSSSLGTQTYICNVNHKPSNTKVDKKVEPKSCDKTHTCPPCPAPELLGGPSVFLFPPKPKDTLMISRTPEVTCVVVDVSHEDPEVKFNWYVDGVEVHNAKTKPREEQYNSTYRVVSVLTVLHQDWLNGKEYKCKVSNKALPAPIEKTISKAKGQPREPQVYTLPPSRDELTKNQVSLTCLVKGFYPSDIAVEWESFGTEWSNYKTTPPVLDSDGSFFLYSKLTVSKSEWQQGFVFSCSVMHEALHNHYTQKSLSLSPELQLEESCAEAQDGELDGLWTT
B2: 35.d1.22 (protein)
chain: B1 chain with F267Y, T269N, S298E
B3: CH3C.1.35 (protein)
chain: B1 chain with F267Y, N273S, S296T
B4: 35.d1.5 (protein)
chain: B1 chain with F267Y, T269N, N273S
B5: 35.d1.8 (protein)
chain: B1 chain with F267Y, T269N, S296T
B6: 35.d1.3 (protein)
chain: B1 chain with F267Y, N273S, S296T, F304Y
B7: 35.d1.11 (protein)
chain: B1 chain with F267Y, S296T, F304Y
B8: 35.d1.17 (protein)
chain: B1 chain with S272T
B9: 35.d1.2 (protein)
chain: B1 chain with F267Y, S272T, N273S, S296T
B10: 35.d1.19 (protein)
chain: B1 chain with S272V, F304Y
B11: 35.d1.13 (protein)
chain: B1 chain with F267Y, T269N
B12: 35.d1.23 (protein)
chain: B1 chain with F267Y, S272T, S298E
B13: 35.d1.1 (protein)
chain: B1 chain with F267Y, T269N, N273S, S296T
B14: 35.d1.6 (protein)
chain: B1 chain with F267Y, S272T, N273S
B15: 35.d1.4 (protein)
chain: B1 chain with N273S
B16: 35.d1.24 (protein)
chain: B1 chain with F267Y, S298E, F304Y
B17: 35.d1.20 (protein)
chain: B1 chain with F267Y, S272V
B18: 35.d1.18 (protein)
chain: B1 chain with F304Y
B19: 35.d1.14 (protein)
chain: B1 chain with F267Y, S272T
B20: 35.d1.7 (protein)
chain: B1 chain with F267Y, N273S, F304Y
B21: 35.d1.15 (protein)
chain: B1 chain with F267Y, F304Y
B22: 35.d1.21 (protein)
chain: B1 chain with F267Y, S272V, F304Y

Biological target: T1, human TfR apical domain
Test: SPR

Kd | Binder
1.6 µM | B1
5.2 µM | B2
0.61 µM | B3
13.6 µM | B4
13.2 µM | B5
1.3 µM | B6
2.5 µM | B7
18.8 µM | B8
4.3 µM | B9
16 µM | B10
18.5 µM | B11
3.5 µM | B12
6.2 µM | B13
11.2 µM | B14
1.4 µM | B15
1.1 µM | B16
3.6 µM | B17
4.4 µM | B18
11.7 µM | B19
3 µM | B20
3.6 µM | B21
14.1 µM | B22
